Tested on: human foreskin fibroblasts
Experiment: Ligand stimulated [3H]thymidine incorporation
Type: cell-based
Source text: The possible role of peptide 16T as an antagonist for PDGF activity in vivo was investigated. Following the methodology of Betsholtz et al., J. Cell Physiol 118: 203-210 (1984), the disclosure of which is incorporated by reference, [^3 H] thymidine incorporation by human fibroblasts in the presence of various peptides was studied.

B1: PDGF-BB: platelet derived growth factor B chain homodimer (protein, UniProt P01127 82-190, looked up)
Platelet-derived growth …: SLGSLTIAEPAMIAECKTRTEVFEISRRLIDRTNANFLVWPPCVEVQRCSGCCNNRNVQCRPTQVQLRPVQVRKIEIVRKKPIFKKATVTLEDHLACKCETVAAARPVT
- [3H]thymidine incorporation, ligand alone (no peptide (unstimulated control 483 cpm), mean of duplicates): 1918 cpm
- Stimulation of [3H]thymidine incorporation by ligand (no peptide, versus unstimulated control): 4 fold

— patent publication US5444151A, “Platelet derived growth factor antagonists” (Ludwig Institute for Cancer Research, priority 1992, dated 1995)
